Like-named read-outs stand apart in the source and are kept apart here.

Experiment [1] has as its target HLA A*0201 on the surface of TAP deficient T2 cells (human (endogenous in T2 cells)). Kind of experiment: flow cytometry on cells; T2-binding assay: TAP deficient T2 cells with peptide at 100, 50, 10 and 1 μM in AIM-V, 10 min 37 °C, room temperature overnight, 2 h 37 °C; surface HLA A*0201 stained with anti-human HLA A*0201:RPE; MFI fitted (log(agonist) vs. response) to logEC50. In general terms: Flow cytometry measures light scatter and fluorescence of single cells or particles in a stream.

Experiment [2] has as its target soluble recombinant HLA A*0201 (α chain tagged with a biotinylation sequence, with β2m). Kind of experiment: SPR; real time pMHC stability assay, BIAcore 3000, CM5 chip; ~500 RU of biotinylated refolded pMHCI immobilised on streptavidin; flow 10 μl/min for 15,000 s; Langmuir dissociation analysis converted to half-life. Background: SPR reads the build-up and loss of mass on a sensor chip optically.

Experiment [3] shares this target. The experiment is described as above. This is another data set of the same source.
The target in experiment [4] is HLA A*0201 on the surface of TAP deficient T2 cells (human (endogenous in T2 cells)). The experiment is described as follows: flow cytometry on cells; T2-binding assay: TAP deficient T2 cells with peptide at 100, 50, 10 and 1 μM in AIM-V, 10 min 37 °C, room temperature overnight, 2 h 37 °C; surface HLA A*0201 stained with anti-human HLA A*0201:RPE; MFI fitted (log(agonist) vs. response) to logEC50. The source holds these as a separate data set.

As usually defined, the half-life is the time in which the quantity being followed falls by half. The term koff denotes the first-order rate constant of dissociation. Take SLLMWITQL [NY-ESO-1 157-165 heteroclitic peptide …]: in experiment [1], the LogEC50 is -4.37 M. Besides, in experiment [2], the half-life amounted to 10.1 h and the koff came out at 1.9e-05 s⁻¹.

As to YLEPGPVTA (modifications not checked) [gp100 280-288 peptide YLEPGPVA], the half-life in experiment [3] was determined as 5.8 h. The same molecule gave a LogEC50 in experiment [4] of -3.59 M.

Source of the values: PMC3032881.
